Data from PMC5425828.

Biological target: T1, Sco1678 (GntR-His) (Streptomyces coelicolor M145) (UniProt Q9AD89)
T1 sequence: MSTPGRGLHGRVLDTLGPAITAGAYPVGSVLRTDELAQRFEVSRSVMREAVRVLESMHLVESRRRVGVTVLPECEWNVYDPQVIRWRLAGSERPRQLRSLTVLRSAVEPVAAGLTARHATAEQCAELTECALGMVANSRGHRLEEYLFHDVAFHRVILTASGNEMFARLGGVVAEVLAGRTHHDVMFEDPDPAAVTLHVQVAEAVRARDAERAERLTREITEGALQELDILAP
Test: EMSA
Conditions: 20 mM Tris/HCl pH 7.5, 50 mM KCl, 10 mM MgCl2, 5% (v/v) glycerol, 0.5 mM EDTA, 25 min at 25 C; 0.2 pmol Cy5 probe, 0.93-4.18 pmol protein; 8% native PAGE, 1x …

Sequence | binding
AGCCAGTGGCGATAAGCGTCGTACTCCTGTTCCTGCCGGCCGGTGCGTGGTGCGGCTATATGACCAGGGACAACAGCAGGACCAGGGCACCGGCGACCACCGAGATGATCGTCTCCATGACGGACCAGGTCTTGATGGTCTGCCCCACGTTCAGCCCGAAGTACTCCTTCACCAGCCAGCTTATCGCCACTGGCT (double strand) [gntZ promoter region] | no binding
AGCCAGTGGCGATAAGGTTGCTGCATCGCACTCTCGCTGTCTGCTGTCTTCGTCGACACCTGATGTCGACGCAACTGAAACTCATTAGTACGACAACTTCAAGAGTCTGTGACGTATAAGTCTGACTTTTTGTTCCCGTGACATGCCCCGTACGCTGAGTGCATGAGCACACCGGGCCGGGGGCTGCACGGCCGCGTACTGGACACCCTCGGCCCCGCGATCACAGCTTATCGCCACTGGCT (double strand) [gntR-gntK intergeneric region] | binds
